These results are taken from patent US20240409617A1 (published 2024).

Changes are numbered by the printed parent chain. A value given as a limit tells only on which side of the number the result lay.

Sequences and labels used below:
B1: Ab 17 (scFv, V domains shown)
VH: QVQLVQSGGGVVQPGRSLRLSCAASGFTFDDYAMHWVRQVPGKGLEWVSGIDWNSGVIGYADSVKGRFTISRDNVKNSLYLQMNSLRTEDSALYYCAKDIGPGGSGSYYAFDIWGQGTTVTVSS
VL: QSALTQPASVSGSPGQSITISCTGTSSDVGGSKYVSWYQQHPGKAPKVMIYDVTKRPSGVPDRFSGSKSGNTASLTISGLQAEDEADYYCAAWDDSLNGVVFGGGTKLTVL
B2: Ab 20 (scFv, V domains shown)
VH: QVQLVQSGGGSVKPGGSLRLSCAASGYRLSDYYMHWVRQAPGKGLEWVANIKQDGSEKYYVDSVKGRFTISRDNAKNSLYLQMNSLRAEDTAVYYCARVRGWSRGYFDYWGQGTLVTVSS
VL: NFMLTQPHSVSESPGKTVTISCTGSSGSIASNYVQWYQQRPGSAPTTVIYEDNQRPSGVPDRFSGSIDSSSNSASLLISGLKTEDEADYYCQSYDSSNHWVFGGGTKLTVL
B3: Ab 13 (scFv, V domains shown)
VH: QVTLKESGPKLVKPTQTLTLTCTFSGFSLSTSGVGVGWIRQPPGKALEWLALIYWDDDKRYSPSLKSRLTIAKDTSKYQVVLTMTNMDPVDTATYYCARISGSGYFYPFDIWGQGTMVTVSA
VL: B2 VL with G24R, L77T, H99L
B4: Ab 21 (scFv, V domains shown)
VH: QVQLVQSGGGLVQPGGSLRLSCATSGFTFDDYAMHWVRQAPGKGLEWVSGISWNSGSIGYVDSVKGRFTISRDNRNNKVYLQMNNLRAEDTAVYYCARDWWGSIDHWGLGTLVTVSS
VL: QSALTQPRSVSGSPGQSVTISCTGTSSDVGGYDYVSWYQQHPGKAPKLIIYDVSKRPSGVPDRFSGSKSGNTASLTVSGLQAEDEADYYCSSYTSSSPVVFGGGTKLTVL
B5: Ab 16 (scFv, V domains shown)
VH: QVQLVQSGGGVVQPGRSLRLSCAASGFTFSNYGMHWVRQAPGKGLEWVALIWERGSKKDYADSVKGRFTVSRDNSKNTLYLQMNSLRPEDTAVYFCAREGISMTGAEYFQHWGQGTLVTVSS
VL: QSVLTQPPSVSGSPGQRVTMSCTGSSSNIGAGYDVHWYQQVPGAAPRLLIYGTNNRPSGVPDRFSGSKSGTSASLTITGLQAEDEADYYCQSYDNSLTDPYVFGTGTKVTVL
B6: Ab 18 (scFv, V domains shown)
VH: EVQLVQSGGGVVQPGRSLRVSCAASGFSFSRYGMHWVRQAPGKGLEWVAFIRHDGSKKYYADSVEGRFTISRDNSRNTVSLEMNSLRGEDTAVYYCAKDGRLEAALDDWGQGTLVTVSS
VL: NFMLTQPHSMSGSAGKTVTVSCIRSSGSIANNFVQWYQQRPGSAPTTVIYEDNQRPSGVPDRFSGSIDSSSNSASLTISGLKTEDEADYYCQSYDSSNLVFGGGTRLTVL
B7: Ab 38 (scFv, V domains shown)
VH: QVTLKESGPTLVKPTQTLTLTCTFSGFSLTTSGVSVGWIRQPPGKALEWLALIHWDDDKRYSPSLRSRLTITRDTSKNQVVLTVTDMDPADTGTYYCASFIMTVYAEYFEDWGQGTLVTVSS
VL: EIVLTQSPATLSVSPGERATLSCRASQSVSSNLAWYQQKPGQAPRLLMYDVSTRATGIPARFSGSGSGTEFSLTISSLQSEDFAVYYCQQRGAWPLTFGGGTKVEIK
B8: Ab 31 (scFv, V domains shown)
VH: QVQLVQSGAEVKKPGSSVKVSCKASGGTFSSYTISWVRQAPGQGLEWMGGIIPILGTPNYAQKFQDRVAITADKSTSTAYMELSSLRSEDTAVYYCAVGSGWYSGFDYWGQGTLVTVSS
VL: B2 VL with N53S, L77T, Y94F, D95H, S96N, H99P, W100V, V101I
B9: Ab 37 (scFv, V domains shown)
VH: QVQLVQSGAEVKKPGASVKVSCKASGYTFTSYGISWVRQAPGQGLEWMGWISTYNGNTNYAQKLQGRVTMTTDTSTSTAYMEVRSLRSDDTAVYYCARDVFGHFDYWGQGTLVTVSS
VL: NFMLTQPHSVSESPGKTVLISCTRSSGNIATNYVQWYQQRPGSAPTTVIYEDNQRPSGVPDRFSGSIDSSSNSASLTISGLKTEDEADYYCKSYDDGNHVFGGGTKLTVL
B10: Ab 32 (scFv, V domains shown)
VH: QVQLVQSGAEVKKPGESLKISCKGSGYSFTSYWIGWVRQMPGKGLEWMGIIYPGDSDTRYSPSFQGQVTISADKSISTAYLQWSSLKASDTAMYYCARGWQWHDYWGQGTLVTVSS
VL: QTVVTQEPAVSVALGQTVRITCQGDSLRSYYASWYQQKPGQAPVLVVYDKDKRPSGIPDRFSGSTSGNTASLTITGAQAEDEADYYCNSRDRSDNHVVFGGGTKLTVL
B11: Ab 29 (scFv, V domains shown)
VH: QVQLQQSGPGLVKPSQTLSLTCAISGDSVSSYSDAWNWIRQSPSRGLEWLGRTYYRSKWYNDYAVSVKSRITINPDTSKNQFSLQLSSVTPEDTAVYYCAREIVATTPFRNYYYGMDVWGQGTTVTVSS
VL: NFMLTQPHSVSESPGNTVTISCTRTSGSIASNYVQWYQQRPGSSPTTVIFQDKLRPSGVPDRFSGSIDSSSNSASLTISGLKTEDEADYYCQSYDSSSLWVFGGGTKLTVL
B12: Ab 8 (scFv, V domains shown)
VH: QVQLVQSGAEVKKPGSSVKVSCKASGGTFSSYAISWLRQAPGQGLEWMGWINPNSGGTNYAQKFQGRVTMTRDTSISTAYMELSRLRSDDTAVYYCARGSGGYYLGWGQGTLVTVSS
VL: QPGLTQPPSVSKGLRQTATLTCTGNSNNVGNQGAAWLQQHQGHPPKLLSYMNNNRPPGISERFSASRSGNTASLTITGLQPEDEADYYCSAWDSSLSRWVFGGGTKLSVL
B13: Ab 34 (scFv, V domains shown)
VH: QVQLVQSGVEVKKPGESLKISCKGSGYSFTSYWIGWVRQMPGKGLEWMGIIYPGDSDTRYSPSFQGQVTISADKSISTAYLQWSSLKASDTAMYYCARTTYSYGSFDYWGQGTLVTVSS
VL: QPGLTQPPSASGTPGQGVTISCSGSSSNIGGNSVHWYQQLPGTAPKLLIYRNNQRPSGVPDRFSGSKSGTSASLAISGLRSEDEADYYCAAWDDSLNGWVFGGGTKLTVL
B14: Ab 39 (scFv, V domains shown)
VH: QVTLKESGPTLVKPTQTLTLTCTLSGVSLDTIGMRVSWIRQPPGKALEWLARIDWDDDKFYSTALKTRLTISKDTSKNQVVFTMTSMDPVDTATYYCARSGLLYDLDVWGRGTLVTVSS
VL: QSVVTQPPSVSGAPGQRVTISCTGSDSDIGANFVQWYQQLPGTAPKLLIWRNTNRPSGVPDRFSASKSGTSASLAITGLQAEDEADYFCQSYDSSLSAYVFGGGTKVTVL
B15: Ab 36 (scFv, V domains shown)
VH: QVQLQQSGPGLVKPSQTLSLTCAIFGDSVTSNSAAWNWIRQSPSRGLEWLGRTYYSSKWYNDYAVSVKSRVTINADTSKNQLSLQLNSVTPEDTAVYYCARGWLRLSFDPWGQGTLVTVSS
VL: NFMLTQPHSVSESPGKTVTISCTGSSGSIASNYVQWLQQRLGSAPTTVIYEDNQRPSGVPDRFSGSIDSSSNSASLTISGLKTEDEADYYCQSYDPNNHGVVFGGGTKLTVL

The first assay deals with S1-biotin(ACRO). Put plainly: BLI. On the technique in general: BLI is a label-free optical method that tracks binding on a fibre tip over time.
Take B1: binding was put at a Kd of 0.716 nM.
Regarding B2, binding was put at a Kd of 5.01 nM.
B3: the dissociation constant Kd (as a rule, a measure of binding affinity in units of concentration) was 1.14 nM.
In turn, B4 had an equilibrium dissociation constant (Kd) of 1.28 nM.
As for B5, binding was characterised by a dissociation constant (Kd) of 2.18 nM.
B6: the dissociation constant Kd was determined as 0.121 nM.

The target in another assay is S1. The experiment in a line: BLI.
In turn, B1 yielded a dissociation constant (Kd) of 0.716 nM.
Same read-out and setting: the figure for B7 is 0.22 nM.
The molecule B8 gave an equilibrium dissociation constant (Kd) of 2040 nM.
Regarding B2, binding was put at a Kd of 5.01 nM.
B3 displayed a dissociation constant Kd of 1.14 nM. Against the preceding molecule, the Kd is about 4.4-fold lower.
As for B4, binding was characterised by a dissociation constant (Kd) of 1.28 nM.
For the molecule B5, the dissociation constant (Kd) was determined as 2.18 nM.
On the same count and under the same terms, the figure for B9 is 0.907 nM.
As to B6, the Kd came out at 0.121 nM.
Regarding B10, the affinity, expressed as Kd, was 0.168 nM.
Take B11: the dissociation constant (Kd) is < 0.001 nM.
As for B12, binding was characterised by a dissociation constant (Kd) of 325 nM.
For B13, the Kd was 0.184 nM.
As for B14, the Kd is < 0.001 nM.
Still for that read-out and setting: to B15 belongs 0.0306 nM.
